Measurements published in patent US20190153103A1 (AbbVie / Abbott, published 2019).

T1: human BMPR1B coated on MSD plates (construct not stated) (human, UniProt O00238 14-126, limits assumed)
T1 construct: also called BMPR1B receptor
T1 sequence: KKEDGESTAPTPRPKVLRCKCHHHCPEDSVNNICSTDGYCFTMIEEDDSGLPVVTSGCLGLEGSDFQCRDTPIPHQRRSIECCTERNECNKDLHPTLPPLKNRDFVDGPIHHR

T2: hBMPR1B-His (human BMPR1B extracellular domain, residues K14 to R126, with C-terminal 9x-Histidine tag) (human, UniProt O00238 14-126)
T2 construct: Residues K14-R126 are counted on the hBMPR1B ORF (NM_001203); The IgK signal peptide of the vector is left out; also called hBMPR1B-CHis; human BMPR1B-his
T2 sequence: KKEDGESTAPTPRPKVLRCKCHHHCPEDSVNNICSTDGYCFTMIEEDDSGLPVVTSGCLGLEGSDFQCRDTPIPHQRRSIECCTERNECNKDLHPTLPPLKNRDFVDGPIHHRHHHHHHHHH

T3: rat-his
T3 construct: soluble analyte of the Biacore runs; also called rSCRx91-his; rBMPR1B-CHis
T3 chain: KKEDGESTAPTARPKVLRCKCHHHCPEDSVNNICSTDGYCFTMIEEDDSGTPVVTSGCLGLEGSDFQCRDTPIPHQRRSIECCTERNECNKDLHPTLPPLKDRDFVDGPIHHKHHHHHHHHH

T4: BMP4-his (human, UniProt P12644 293-408, limits assumed)
T4 construct: not shown: his tag
T4 sequence (looked up): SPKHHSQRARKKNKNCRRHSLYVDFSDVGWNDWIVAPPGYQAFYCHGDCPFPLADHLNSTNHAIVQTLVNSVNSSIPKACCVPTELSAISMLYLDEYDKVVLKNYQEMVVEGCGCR

B1: hBMPR1B-Fc (human BMPR1B extracellular domain, residues K14 to R126, fused to human IgG2 Fc) (Fc fusion)
chain: KKEDGESTAPTPRPKVLRCKCHHHCPEDSVNNICSTDGYCFTMIEEDDSGLPVVTSGCLGLEGSDFQCRDTPIPHQRRSIECCTERNECNKDLHPTLPPLKNRDFVDGPIHHR
notes: also called BMPR1B fused to human Fc fragment; not shown: human IgG2 Fc protein

Assays:
[1] = target: T1, human BMPR1B coated on MSD plates …; assay: MSD ELISA, BMP4 blocked; design: concentration or dose not given beside the values
[2] = target: T5, irrelevant Fc-tagged protein; assay: ELISA
T5 construct: ELISA control; also called irrelevant Fc construct

[3] = target: B1; assay: ELISA
[4] = target: T6, BMPR1A-Fc (recombinant protein used in the screen 1 ELISA) (human, UniProt P36894 24-152, limits assumed); assay: ELISA
T6 construct: also called human BMPR1A; not shown: Fc

[5] = target: T2, hBMPR1B-His (human BMPR1B extracellular …); assay: ELISA
[6] = target: T7, rat BMPR1B overexpressed on the surface of HEK293T cells (N-terminal Asp-Lys epitope tag, … (rat, UniProt A0A8I6A0G0 62-550)); assay: cell-based or functional assay
[7] = target: T8, human BMPR1B overexpressed on the surface of HEK293T cells (N-terminal Asp-Lys epitope tag, … (human, UniProt O00238 14-502)); assay: cell-based or functional assay
[8] = target: T1, human BMPR1B coated on MSD plates …; assay: MSD ELISA, BMP2 blocked; design: concentration or dose not given beside the values
[9] = target: T7, rat BMPR1B overexpressed on the surface …; assay: flow cytometry
[10] = target: T8, human BMPR1B overexpressed on the …; assay: flow cytometry
Cyno-his = target: T9, Cyno-his (cynomolgus); assay: Biacore
T9 construct: extracellular domain; soluble analyte of the Biacore runs; also called cSCRx91-his; cBMPR1B-CHis

rat-his [11] = target: T3, rat-his; assay: Biacore
[12] = target: T2, hBMPR1B-His (human BMPR1B extracellular …); assay: Biacore
rat-his [13] = target: T3, rat-his; assay: Biacore, 200 nM
BMP4-his = target: T4, BMP4-his; assay: SPR, Biacore T200: BMPR1B-Fc captured on anti-human capture chip, BMP4-his injected at 31.3-500 nM, 1:1 model
[14] = target: T2, hBMPR1B-His (human BMPR1B extracellular …); assay: SPR, Biacore T200: BMP2-Fc captured on anti-human capture chip, BMPR1B-his injected at 2.5-40 µM, 1:1 model

T6 sequence (P36894 24-152 limits assumed): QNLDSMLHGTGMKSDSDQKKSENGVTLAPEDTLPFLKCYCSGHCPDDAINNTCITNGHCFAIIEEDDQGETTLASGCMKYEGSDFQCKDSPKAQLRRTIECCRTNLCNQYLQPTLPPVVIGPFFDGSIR

% inhibition [1] [%] | ELISA [2] | ELISA [3] | ELISA [4] | ELISA [5] | % live, Fab-saporin, 100pM [6] [%] | % live, Fab-saporin, 100pM [7] [%] | % inhibition [8] [%] | Flow cytometry MFI [9] | Flow cytometry MFI [10] | Kd (Cyno-his) [nM] | Kd (rat-his [11]) [nM] | Kd [12] [nM] | binding result (rat-his [13]) | Kd (BMP4-his) [nM] | Kd [14] [nM] | Binder
75 | 0.039 | 0.483 | 0.031 | 1.17 | 15.6 | 9.53 | 38 | 5080 | 5520 | 5.1 | 3.34 | 2.34 | – | – | – | SC91.1 (murine anti-BMPR1B antibody) (antibody, V domains shown, Murine hybridoma antibody with a kappa light chain) VH: QVQLQQPGAELVKPGASVKLSCKASGYTFTSYWMQWVKQRPGQGLEWIGEIDPSDNYTLYNQKFKGKATLTVDTSSSTAYMQLSSLTSEDSAVYYCARFGYYVDYWGLGTTLTVSS VL: DVVMTQTPLSLPVSLGDQASIFCRSSQSLVHSTGNTYLHWYLQKPGQSPKLLIYKVSNRFSGVPDRFSGSGSGTDFTLKISRVEAEDLGVYFCSQSTHVPFTFGSGTKLEIK
– | 0.039 | 0.423 | 0.035 | 0.883 | 16 | 9.34 | – | 5840 | 6840 | 0.503 | – | 0.163 | binds | – | – | SC91.3 (murine anti-BMPR1B antibody) (antibody, V domains shown, Murine hybridoma antibody) VH: QVQLQQPGAELVKPGASVKLSCKASGYTFTSYWMQWVKQRPGQGLEWIGEIDPSDSYTLYNQKFKGKATLTVDTSSSTAYMQLSSLTSEDSAVYFCARFGYYIEYWGQGTTLTVSS VL: DVVMTQTPLSLPVSLGDQASISCRSSQSLVHSTGNTYLHWYLQKPGQSPKLLIYKVSNRFSGVPDRFSGSGSGTDFTLKISRVEAEDLGVYFCSQSTHVPFTFGSGTKLEIK
– | 0.041 | 0.462 | 0.116 | 1.01 | 18.2 | 10.4 | – | 5940 | 7480 | 2.3 | 1.91 | 0.934 | – | – | – | SC91.20 (antibody, V domains shown) VH: QVQLQQPGAEVVRPGASLKLSCKASGYTFTSYWMQWIKQRPGQGLEWIGEIDPSDNYTMYNQKFKGKATLTVDTSSSTAYMQLSSLTSEDSAVYFCARFGFYVDYWGQGTTLTVSS VL: DVVMTQTPLSLPVSLGDQASISCRSSQSLVHSTGNTYLHWYLQKPGQSPNLLIYKVSNRFSGVPDRFSGSGSGTDFTLKISRVEAEDLGVYFCSQSTHVPFTFGSGTKLEIK
– | 0.042 | 0.417 | 0.043 | 0.855 | 17.9 | 11.9 | – | 5970 | 6880 | 2.56 | 2.14 | 1.98 | – | – | – | SC91.27 (murine anti-BMPR1B antibody) (antibody, V domains shown, Murine hybridoma antibody with the same VL as SC91.20) VH: QVQLQQPGAEVVKPGASVKLSCKASGYTFTNYWMQWVKQRPGQGLEWIGEIDPSDRYTMYNQKFKGKATLIVDTSSSTAYMQLSSLTSEDSAVYFCARFGYYVDYWGQGTTLTVSS VL: DVVMTQTPLSLPVSLGDQASISCRSSQSLVHSTGNTYLHWYLQKPGQSPNLLIYKVSNRFSGVPDRFSGSGSGTDFTLKISRVEAEDLGVYFCSQSTHVPFTFGSGTKLEIK
61 | 0.05 | 0.737 | 0.121 | 1.46 | 102 | 14.3 | 32 | 470 | 7250 | – | – | 8.46 | binds | – | – | SC91.19 (antibody, V domains shown) VH: QIQLVQSGPELKKPGETVKISCKASGYTFTTYGMNWVKQAPGKGLKWMGWINTYSGVPSSANDFKGRFAFSLETSASTAYLQINNLKNEDTATYFCARSELRNWYFDVWGTGTTVTVSS VL: SFVMTQTPKFLLVSAGDRVTITCKASQSVGNDVAWYQQKPGQSPKLLIYYASNRYTGVPDRFTGSGYGTDFTFTISTVQAEDLAVYFCQQDYSSPFTFGSGTKLEMK
92 | 0.05 | 0.829 | 0.055 | 1.19 | 18.5 | 11.9 | 11 | 4590 | 5610 | 0.947 | 1.5 | 0.922 | – | – | – | SC91.15 (murine anti-BMPR1B antibody) (antibody, V domains shown, Murine hybridoma antibody) VH: QVQLQQPGAELVMPGASVKLSCKASGYTLTNYWMHWVKQRPGQGLEWIGDIDPSDTYTNYNHKFKGKATLTVDKSSSTAYMQLSSLTSEDSAVYYCARSGWDYFDSWGQGTTLTVSS VL: not shown
– | – | – | – | – | – | – | – | – | – | – | – | – | – | 1.2 | – | B1
– | 0.04 | 0.387 | 0.117 | 0.791 | 68.7 | 15.5 | – | 4660 | 7330 | 11.1 | – | 1.15 | binds | – | – | SC91.11 (antibody, V domains shown) VH: QVQLQQPGAELVKPGASVKLSCKASGYTFTTYWMHWVKQRPGRGLEWIGRIDPNSGGTKYNEKFKSKATLTVDKPSSTACMQLSSLTSEDSAVYYCASRRGDIDVWGTGTTVTVSS VL: DIVMTQSQKFMSTSVGDRVSVTCKASQNVGTNVFWYQQKPGQSPKALIYAASYRYSGVPDRFTGSGSGTDFTLTISNVQSEDLADYFCQQYDSYPLTFGDGTKLELR
93 | 0.042 | 0.551 | 0.056 | 1.41 | 14.7 | 9.44 | 50 | 5270 | 5480 | 0.153 | 0.181 | 0.322 | – | – | – | SC91.9 (murine anti-BMPR1B antibody) (antibody, V domains shown, Murine hybridoma antibody) VH: QVQLQQPGAELVKPGASVKLSCKASGYTFISYWMHWVKQRPGQGLEWIGMIHPNSGSTNYNESFKSKATLTVDKSSSTAYMQLSSLTSEDSAVYYCARDLLIATVVVTPYFAYWGQGTILTVSS VL: DIQMTQTTSSLSASLGDRVTISCRASQDISNFLNWYQQKPDGTIKFLIYYTSRLHSGVPSRFSGSGSGTDYSLTIRNLEQEDIATYFCQQGNTLPYTFGGGTKLEIK
– | – | – | – | – | – | – | – | – | – | – | – | – | – | – | 61000 | BMP2 fused to a human Fc fragment (Fc fusion, UniProt P12643 283-396, looked up, not shown: human Fc fragment) QAKHKQRKRLKSSCKRHPLYVDFSDVGWNDWIVAPPGYHAFYCHGECPFPLADHLNSTNHAIVQTLVNSVNSKIPKACCVPTELSAISMLYLDENEKVVLKNYQDMVVEGCGCR
